Among the data in patent US20220380739 are KM values, retold here.

Data set [1] addresses T1, Abz-VDVADFA-Dap (Dnp).
T1 chain: VDVADFA

Data set [2] has as its target T2, Abz-VDVADGA-Dap (Dnp).
T2 chain: VDVADGA

Data set [3] has as its target T3, Abz-VDVADQA-Dap (Dnp).
T3 chain: VDVADQA

Data set [4] deals with T4, Abz-VDVADVA-Dap (Dnp).
T4 chain: VDVADVA

B1: T7AC-6H-cpCasp2_sar (protein)
chain: MLEDPERNKERKEAELQAQTAEQHHHHHHGKEHMASPGCEQSAAGKEKILKMRLPTRSDMICGYACLKGTAAMRNTKRGSWYIEALTQVFSERARDMHVADMLVKVNALIKDREGYAPGTEFHRCKEMSEYSSTLCRHLYLFPGHPPTGSGPPSLQVKPCTSEFYRTHHHLAYRLQSRPRGLALVLSNVHFNGEKDLEFRSGGDVDHSSLVTLFKLLDYDVHVLRDQTAQEMYEKLQRFAQLSTHQNTDSCVVALLSHGIEGGIYGVDGQLLQLQEVFQLFDNANCPNLQNKPKMFFIQACRGDETDRGVDLRD
By KM is commonly meant the substrate concentration at which the rate is half of its maximum. On to B1, for which the Michaelis constant (KM) came out at 44 µM in data set [1], 48 µM in data set [2], 94 µM in data set [3] and 34 µM in data set [4].

B2: T7AC-6H-cpCasp2_sar_E105V, E172V (protein)
chain: MLEDPERNKERKEAELQAQTAEQHHHHHHGKEHMASPGCEQSAAGKEKILKMRLPTRSDMICGYACLKGTAAMRNTKRGSWYIEALTQVFSERARDMHVADMLVKVNALIKDREGYAPGTEFHRCKVMSEYSSTLCRHLYLFPGHPPTGSGPPSLQVKPCTSEFYRTHHHLAYRLQSRPRGLALVLSNVHFNGVKDLEFRSGGDVDHSSLVTLFKLLDYDVHVLRDQTAQEMYEKLQRFAQLSTHQNTDSCVVALLSHGIEGGIYGVDGQLLQLQEVFQLFDNANCPNLQNKPKMFFIQACRGDETDRGVDLRD
As to B2, the KM in data set [1] was determined as 52 µM; in data set [2], 31 µM; in data set [3] it was 120 µM; in data set [4] it was 69 µM.

B3: wt caspase-2 (human, produced in E. coli with poly-his-tag) (protein)
chain: GPVCLQVKPCTPEFYQTHFQLAYRLQSRPRGLALVLSNVHFTGEKELEFRSGGDVDHSTLVTLFKLLGYDVHVLCDQTAQEMQEKLQNFAQLPAHRVTDSCIVALLSHGVEGAIYGVDGKLLQLQEVFQLFDNANCPSLQNKPKMFFIQACRGDETDRGVDQQDGKNHAGSPGCEESDAGKEKLPKMRLPTRSDMICGYACLKGTAAMRNTKRGSWYIEALAQVFSERACDMHVADMLVKVNALIKDREGYAPGTEFHRCKEMSEYCSTLCRHLYLFPGHPPTHHHHHH
On to B3, for which the KM was found to be 79 µM in data set [1], 97 µM in data set [2], 110 µM in data set [3] and 86 µM in data set [4].
